Data taken from patent US20210283212A1 (RA PHARMACEUTICALS, published 2021).
Starred links: 1 amine or outer side, 2 acyl side, 3 side chain; linkers in the order of their positions; H or OH if unused. Positions of bridges follow the written chain, without caps; N, C: chain ends. Non-standard residues stand in square brackets, D forms with d. Primed or numbered codes have the meaning given here. No end group written: not given here. Lys‑C8 = N-ε-caprylic lysine, CCCCCCCC(=O)NCCCC[C@H](N[*:1])C(=O)[*:2]; mXylyl(3) = bridging moiety between the two residues given in brackets; m‑xylyl = bridging moiety between the two residues given in brackets; mXylyl″ = bridging moiety between the two marked residues; Ala(1H-tetrazol-5-yl) = N[C@@H](Cc1nnn[nH]1)C(=O)O; Trp(7-aza) = N[C@@H](Cc1c[nH]c2ncccc12)C(=O)O; mXylyl(4) = bridging moiety between residues; NMeD = CN[C@@H](CC(=O)O)C(=O)O; dPhg = N[C@@H](C(=O)O)c1ccccc1; Chg = N[C@H](C(=O)O)C1CCCCC1; Phg = N[C@H](C(=O)O)c1ccccc1; Tle = CC(C)(C)[C@H](N)C(=O)O; Lys‑C12 = N-ε-lauryl lysine; NMeS = CN[C@@H](CO)C(=O)O; NMeA = CN[C@@H](C)C(=O)O; Nva = CCC[C@H](N)C(=O)O; Sar = CNCC(=O)O

B1: R3001 (peptide)
peptide: Ac-[Nva]CYEN[Tle]Y[Trp(7-aza)]EY[Sar][Nva][NMeS]-NH2
SMILES: CCC[C@H](NC(C)=O)C(=O)N[C@@H](CS)C(=O)N[C@@H](Cc1ccc(O)cc1)C(=O)N[C@@H](CCC(=O)O)C(=O)N[C@@H](CC(N)=O)C(=O)N[C@H](C(=O)N[C@@H](Cc1ccc(O)cc1)C(=O)N[C@@H](Cc1c[nH]c2ncccc12)C(=O)N[C@@H](CCC(=O)O)C(=O)N[C@@H](Cc1ccc(O)cc1)C(=O)N(C)CC(=O)N[C@@H](CCC)C(=O)N(C)[C@@H](CO)C(N)=O)C(C)(C)C
B2: R3023 (peptide)
peptide: Ac-YPYC[Phg][Trp(7-aza)][Tle]E[Nva]NY[Nva]E-NH2
SMILES: CCC[C@H](NC(=O)[C@H](Cc1ccc(O)cc1)NC(=O)[C@H](CC(N)=O)NC(=O)[C@H](CCC)NC(=O)[C@H](CCC(=O)O)NC(=O)[C@@H](NC(=O)[C@H](Cc1c[nH]c2ncccc12)NC(=O)[C@@H](NC(=O)[C@H](CS)NC(=O)[C@H](Cc1ccc(O)cc1)NC(=O)[C@@H]1CCCN1C(=O)[C@H](Cc1ccc(O)cc1)NC(C)=O)c1ccccc1)C(C)(C)C)C(=O)N[C@@H](CCC(=O)O)C(N)=O
B3: R3028 (peptide)
peptide: Ac-[Tle]Y[Trp(7-aza)]EYP[Phg][Nva]-NH2
SMILES: CCC[C@H](NC(=O)[C@@H](NC(=O)[C@@H]1CCCN1C(=O)[C@H](Cc1ccc(O)cc1)NC(=O)[C@H](CCC(=O)O)NC(=O)[C@H](Cc1c[nH]c2ncccc12)NC(=O)[C@H](Cc1ccc(O)cc1)NC(=O)[C@@H](NC(C)=O)C(C)(C)C)c1ccccc1)C(N)=O
B4: R3003 (peptide)
peptide: Ac-[Nva]CYEN[Tle]Y[Trp(7-aza)]EYP[Phg]P-NH2
SMILES: CCC[C@H](NC(C)=O)C(=O)N[C@@H](CS)C(=O)N[C@@H](Cc1ccc(O)cc1)C(=O)N[C@@H](CCC(=O)O)C(=O)N[C@@H](CC(N)=O)C(=O)N[C@H](C(=O)N[C@@H](Cc1ccc(O)cc1)C(=O)N[C@@H](Cc1c[nH]c2ncccc12)C(=O)N[C@@H](CCC(=O)O)C(=O)N[C@@H](Cc1ccc(O)cc1)C(=O)N1CCC[C@H]1C(=O)N[C@H](C(=O)N1CCC[C@H]1C(N)=O)c1ccccc1)C(C)(C)C

Target: human C5 protein (human, UniProt P01031 19-673; P01031 678-1676)
Assay: cell-based or functional assay

Binder	Avg. IC50, human hemolysis assay [nM]
Ac-CVERACD[Tle]Y[Trp(7-aza)]EYP[dPhg][Nva]-NH2 (linker 1-6 via mXylyl(3)) [R3156]	> 10000
B1	67.2
Ac-[Nva]C[Phg]T[Trp(7-aza)]EA[NMeS]HC[Nva]-NH2 (linker 2-10 via mXylyl(4)) [R3036]	> 50000
Ac-[Nva]CAT[Trp(7-aza)]EY[NMeS]HC[Nva]-NH2 (linker 2-10 via mXylyl(4)) [R3032]	> 10000
B2	> 100000
B3	> 10000
Ac-AC[Phg]T[Trp(7-aza)]EY[NMeS]HC[Nva]-NH2 (linker 2-10 via mXylyl(4)) [R3031]	1090
Ac-C[Tle]Y[Trp(7-aza)]EY[NMeS]HC-NH2 (linker 1-9 via mXylyl″) [R3016]	> 13000
Ac-C[Phg]T[Trp(7-aza)]EY[NMeS]HC-NH2 (linker 1-9 via mXylyl″) [R3015]	> 3960
Ac-CAERFCD[Tle]Y[Trp(7-aza)]EYP[Phg][Lys‑C8]-NH2 (linker 1-6 via m‑xylyl) [R3166]	17.5
Ac-CVERFC[Ala(1H-tetrazol-5-yl)][Tle]Y[Trp(7-aza)]EYP[Chg][Nva]-NH2 (linker 1-6 via mXylyl(3)) [R3168]	7.5
MCSERYCEVRWEY-NH2 (linker 2-7 via mXylyl″) [R3020]	24.6
Ac-CAERFCD[Tle]Y[Trp(7-aza)]EYP[Phg][Lys‑C12]-NH2 (linker 1-6 via m‑xylyl) [R3164]	36
Ac-CVEAFCD[Tle]Y[Trp(7-aza)]EYP[Phg][Nva]-NH2 (linker 1-6 via mXylyl(3)) [R3153]	175
Ac-CAERFCD[Tle]Y[Trp(7-aza)]EYP[dPhg]K-NH2 (linker 1-6 via m‑xylyl) [R3162]	16.5
Ac-CAERFCD[Tle]Y[Trp(7-aza)]EYP[Phg]K-NH2 (linker 1-6 via m‑xylyl) [R3161]	7
Ac-[Nva]C[Phg]T[Trp(7-aza)]EY[NMeS]HC[Nva]P[Nva]-NH2 (cysteine pairing not given here) [R3022]	> 10200

Binder	Avg. IC50, human hemolysis assay [nM]
Ac-CVERFCA[Tle]Y[Trp(7-aza)]EYP[dPhg][Nva]-NH2 (linker 1-6 via m‑xylyl) [R3158]	327
Ac-[Nva]C[Phg]T[Trp(7-aza)]EY[NMeS]HC[Nva]-NH2 (bridge 2-10) [R3042]	> 100000
Ac-CVERFC[NMeD][Tle]Y[Trp(7-aza)]EYP[Chg][Nva]-NH2 (linker 1-6 via m‑xylyl) [R3172]	12
B4	13.9
Ac-[Nva]C[Phg]T[Trp(7-aza)]EY[NMeA]HC[Nva]-NH2 (linker 2-10 via mXylyl(4)) [R3037]	276
Ac-[Nva]C[Phg]T[Trp(7-aza)]EY[NMeS]AC[Nva]-NH2 (linker 2-10 via mXylyl(4)) [R3038]	140
Ac-CVERACD[Tle]Y[Trp(7-aza)]EYP[Phg][Nva]-NH2 (linker 1-6 via mXylyl(3)) [R3155]	1530
Ac-CVERFCA[Tle]Y[Trp(7-aza)]EYP[Phg][Nva]-NH2 (linker 1-6 via m‑xylyl) [R3157]	84.5
Ac-C[Phg]T[Trp(7-aza)]EY[NMeS]HC[Nva]P[Nva]-NH2 (linker 1-9 via mXylyl″) [R3014]	1420
Ac-CVARFCD[Tle]Y[Trp(7-aza)]EYP[dPhg][Nva]-NH2 (linker 1-6 via mXylyl(3)) [R3151]	165
Ac-[Nva]C[Phg]A[Trp(7-aza)]EY[NMeS]HC[Nva]-NH2 (linker 2-10 via mXylyl(4)) [R3033]	131
Ac-[Nva]C[Phg]T[Trp(7-aza)]EY[NMeS]HC[Nva]P[Nva] (bridge 2-10) [R3040]	> 100000
Ac-CVEAFCD[Tle]Y[Trp(7-aza)]EYP[dPhg][Nva]-NH2 (linker 1-6 via mXylyl(3)) [R3154]	592
Ac-[Nva]CYEN[Tle]Y[Trp(7-aza)]ECP[Phg][Nva]-NH2 (linker 2-10 via mXylyl″) [R3018]	> 5730
Ac-[Nva]C[Phg]T[Trp(7-aza)]EY[NMeS]HCA-NH2 (linker 2-10 via mXylyl(4)) [R3039]	240
Ac-[Nva]C[Phg]T[Trp(7-aza)]AY[NMeS]HC[Nva]-NH2 (linker 2-10 via mXylyl(4)) [R3035]	> 50000
Ac-[Nva]CYEN[Tle]Y[Trp(7-aza)]EYP[Phg][Nva]C-NH2 (linker 2-14 via mXylyl″) [R3019]	1320
